The target in experiment [1] is recombinant Factor VIII (UniProt P00451). The experiment in a line: SPR (Biacore 2000), rFVIII coupled to CM5 chip, fragment injected. In general terms: Surface plasmon resonance follows binding to a sensor surface in real time, without labels.
The target of experiment [2] is plasma derived full length Von Willebrand Factor (human) (UniProt P04275). Description: SPR (Biacore 2000), plasma derived flVWF immobilized on a CM5 chip, FVIII concentration series injected; mean of n=4 per the legend.
The target in experiment [3] is recombinant fragment III monomer with C-terminal Strep-Tag (human) (UniProt P04275). The experiment in a line: SPR (Biacore 2000), fragment III monomer immobilized on CM5, FVIII concentration series injected.
Experiment [4] has as its target recombinant fragment III dimer with C-terminal Strep-Tag (human) (UniProt P04275). Description: SPR (Biacore 2000), fragment III dimer immobilized on CM5, FVIII concentration series injected.
Experiment [5] has as its target recombinant Factor VIII (UniProt P00451). Description: SPR (Biacore 2000), rFVIII coupled to CM5 chip, VWF injected.
Experiment [6] deals with T1, fragment III (SPIII, res. 764-2128) from plasma derived Von Willebrand Factor (human, UniProt P04275 764-2128).
T1 construct: Made by S. aureus V-8 protease digestion of pdVWF; also called VWF fragment III
The experiment in a line: SPR (Biacore 2000), collagen type III coupled to CM5 chip, fragment injected. Here is the method:
(§1) The analysis was carried out using Biacore 2000 instrument (GE Healthcare) according to Romjin et al. 2003 with modifications. Briefly human pepsin-digested collagen type III was covalently bound to the surface of a CM5 sensor chip. Subsequently the samples were injected over the sensor chip surface. The running buffer was 10 mM HEPES, 150 mM NaCl, 3.4 mM EDTA, 0.005% Tween 20.

The target in experiment [7] is T2, plasma derived full length Von Willebrand Factor (human, UniProt P04275 764-2813).
T2 construct: Plasma VWF is multimeric; also called pdVWF; flVWF
Description: SPR (Biacore 2000), collagen type III coupled to CM5 chip, VWF injected. Here is the method:
as §1

The record followed here is US20180185455A1 (OCTAPHARMA, published 2018).

What is called Kd is the concentration at which binding is half-saturated.

As to “fragment II (res. 764-1673) of Von Willebrand Factor (from UniProt P04275 764-1673)”, the Kd in experiment [1] is 155 nM.

In the case of “recombinant Factor VIII (from UniProt P00451 20-2351)”, the figures for the Kd in experiment [2], in experiment [3] and in experiment [4] were 0.25 nM, 14.3 nM and 1.9 nM, respectively.

For the molecule “fragment III (SPIII, res. 764-2128) from plasma derived Von Willebrand Factor (from UniProt P04275 764-2128)”, in experiment [1], the dissociation constant Kd stood at 6.18 nM.

Turning to “plasma derived full length Von Willebrand Factor (from UniProt P04275 764-2813)”, the Kd in experiment [5] turned out to be 0.67 nM.

B1: human pepsin-digested collagen type III (other, UniProt P02461 168-1196, looked up)
chain: GLAGYPGPAGPPGPPGPPGTSGHPGSPGSPGYQGPPGEPGQAGPSGPPGPPGAIGPSGPAGKDGESGRPGRPGERGLPGPPGIKGPAGIPGFPGMKGHRGFDGRNGEKGETGAPGLKGENGLPGENGAPGPMGPRGAPGERGRPGLPGAAGARGNDGARGSDGQPGPPGPPGTAGFPGSPGAKGEVGPAGSPGSNGAPGQRGEPGPQGHAGAQGPPGPPGINGSPGGKGEMGPAGIPGAPGLMGARGPPGPAGANGAPGLRGGAGEPGKNGAKGEPGPRGERGEAGIPGVPGAKGEDGKDGSPGEPGANGLPGAAGERGAPGFRGPAGPNGIPGEKGPAGERGAPGPAGPRGAAGEPGRDGVPGGPGMRGMPGSPGGPGSDGKPGPPGSQGESGRPGPPGPSGPRGQPGVMGFPGPKGNDGAPGKNGERGGPGGPGPQGPPGKNGETGPQGPPGPTGPGGDKGDTGPPGPQGLQGLPGTGGPPGENGKPGEPGPKGDAGAPGAPGGKGDAGAPGERGPPGLAGAPGLRGGAGPPGPEGGKGAAGPPGPPGAAGTPGLQGMPGERGGLGSPGPKGDKGEPGGPGADGVPGKDGPRGPTGPIGPPGPAGQPGDKGEGGAPGLPGIAGPRGSPGERGETGPPGPAGFPGAPGQNGEPGGKGERGAPGEKGEGGPPGVAGPPGGSGPAGPPGPQGVKGERGSPGGPGAAGFPGARGLPGPPGSNGNPGPPGPSGSPGKDGPPGPAGNTGAPGSPGVSGPKGDAGQPGEKGSPGAQGPPGAPGPLGIAGITGARGLAGPPGMPGPRGSPGPQGVKGESGKPGANGLSGERGPPGPQGLPGLAGTAGEPGRDGNPGSDGLPGRDGSPGGKGDRGENGSPGAPGAPGHPGPPGPVGPAGKSGDRGESGPAGPAGAPGPAGSRGAPGPQGPRGDKGETGERGAAGIKGHRGFPGNPGAPGSPGPAGQQGAIGSPGPAGPRGPVGPSGPPGKDGTSGHPGPIGPPGPRGNRGERGSEGSPGHPGQPGPPGPPGAPGPC
notes: also called collagen III
B1: the dissociation constant Kd in experiment [6] amounted to 17 nM; in experiment [7] it was 0.75 nM.
